Laboratory results as given in patent publication US20260116946A1, “NOVEL CD200 FUSION PROTEINS” (DUCENTIS BIOTHERAPEUTICS LIMITED, priority 2022, published 2026).

Key:
human CD200R = target: T1, human CD200R (Homo sapiens, UniProt Q8TD46); experiment: BIAcore SPR binding of CD200-Fc to human CD200R
T1 construct: His; purchased Creative Biomart CD200R1-320H
T1 sequence (Q8TD46 25-348): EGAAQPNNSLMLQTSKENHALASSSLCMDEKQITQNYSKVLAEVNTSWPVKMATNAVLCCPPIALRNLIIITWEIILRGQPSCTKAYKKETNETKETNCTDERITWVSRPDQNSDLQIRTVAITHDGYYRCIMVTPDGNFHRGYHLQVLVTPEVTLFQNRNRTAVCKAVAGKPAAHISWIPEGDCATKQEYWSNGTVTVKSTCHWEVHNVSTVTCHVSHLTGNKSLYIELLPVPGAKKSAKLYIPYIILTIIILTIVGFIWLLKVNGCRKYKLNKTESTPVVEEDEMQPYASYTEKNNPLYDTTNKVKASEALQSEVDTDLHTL
Description: (§1) BIAcore instrumentation uses an optical method, Surface Plasmon Resonance (SPR), to measure the binding characteristics of two interacting molecules; in this case wild-type CD200-Fc or CD200-Fc mutants binding to the CD200 receptor (CD200R). The technique measures changes in the refractive index of one of the two interacting molecules captured on a chip (sensor) when the second molecule is flowed in solution over the captured partner. In these experiments CD200-Fc was immobilized on the chip (sensor) surface and CD200R was injected in an aqueous buffer over the captured CD200-Fc under continuous flow conditions. Changes in the CD200-Fc refractive index following CD200R binding were measured in real time and the result plotted as response units (RUs) versus time to generate sensorgrams.
The experiments were performed on a GE Healthcare BIAcore T200. Human, cynomolgus and mouse CD200R proteins were purchased from Creative Biomart (CD200R1-320H, CD200R1-3483C, CD200R1-3280M). All measurements were performed in duplicate.
For human CD200 constructs: anti-human Fc (GE Healthcare) was covalently immobilized on a BIAcore CM5 sensor chip (Cytiva, BR100530) by amine coupling using a Cytiva kit (BR100839) following the manufacturer's instructions, targeting immobilization of 8,000-11,000 RU. […]
(§2) For mouse CD200 constructs, muCD200R-Fc (Creative Biomart CD200R1-458M) diluted to 1 μg/mL in running buffer was flowed over the immobilized Anti-Human IgG Fc, with CD200 monomers serially diluted and flowed over captured CD200R. […] Data analysis: experimental sensorgrams were analyzed in BIAevaluation software (GE Healthcare). […] Closeness of fit was determined by algorithms provided by the manufacturer in the BIAevaluation software, and data accepted if the Chi^2 value was less than 10% of Rmax, and the U value was less than or equal to 15.

cyno CD200R = experiment: BIAcore SPR binding of CD200-Fc to cynomolgus CD200R; conditions: 25° C., mean of two runs
Description: as §1
The experiments were performed on a GE Healthcare BIAcore T200. […]
as §2

[1] = human CD200R, 25° C., mean of two runs

With “ARQ-234: mutated human CD200-Fc fusion protein: CD200 K130Y, I131Y directly fused to IgG4 Fc S228P, M428L, N434S” the “ka” value (human CD200R; [1]) was 221600 M⁻¹ s⁻¹, the “kd” value (human CD200R; [1]) was 0.0004675 s⁻¹ and the “fold greater affinity for human CD200 receptor than wild-type CD200-Fc (DS-155)” value (human CD200R; versus DS-155) was “approx. 84 fold”. The “ka” value (cyno CD200R) was 159100 M⁻¹ s⁻¹ and the “kd” value (cyno CD200R) was 0.03997 s⁻¹.
